Reference: publication PMC9061753, “Mre11-Rad50 oligomerization promotes DNA double-strand break repair” (Nature Communications, 2022)

B1: 100 bp EMSA (BIO100C/BIO100) (dsDNA)
DNA 1: GATGCAGGAGGCTGCTACGACCATGGCAGAAGATTATGAGGTGGAGTACGCGCCCGGGGAGCCCAAGGGCACGCCCTGGCACCCGCACCGCGGCACTTAC
DNA 2: GTAAGTGCCGCGGTGCGGGTGCCAGGGCGTGCCCTTGGGCTCCCCGGGCGCGTACTCCACCTCATAATCTTCTGCCATGGTCGTAGCAGCCTCCTGCATC
modifications: biotin position marked in table
B2: 197 bp EMSA (197mer) (dsDNA)
DNA 1: GCTTCGTATGTTTCTCCTGCTTATCACCTTCTTGAAGGCTTCCCATTCATTCAGGAACCGCCTTCTGGTGATTTGCAAGAACGCGTACTTATTCGCCACCATGATTATGACCAGTGTTTCCAGTCCGTTCAGTTGTTGCAGTGGAATAGTCAGGTTAAATTTAATGTGACCGTTTATCGCAATCTGCCGACCACTCG
DNA 2: GCGAGTGGTCGGCAGATTGCGATAAACGGTCACATTAAATTTAACCTGACTATTCCACTGCAACAACTGAACGGACTGGAAACACTGGTCATAATCATGGTGGCGAATAAGTACGCGTTCTTGCAAATCACCAGAAGGCGGTTCCTGAATGAATGGGAAGCCTTCAAGAAGGTGATAAGCAGGAGAAACATACGAAG

Columns and labels:
Mre11-Rad50 (MRwt) [1] = target: T1, Mre11-Rad50 (MRwt) (S. cerevisiae, UniProt P32829;P12753 1-692;1-1312); assay: EMSA; ATPgS, 5 mM Mg2+, 30 mM NaCl; mean of the 2 visible of 3 replicates (6.248, 7.406); apparent; Oligo EMSA: 25 mM Tris acetate pH 7.5, 1 mM DTT, 0.25 mg/ml BSA, 5 mM Mg acetate, 1 mM ATPgS, 30 mM NaCl, 30 C 15 min, 100 nM bp DNA; plasmid EMSA: 80 mM KCl, plus 1 mM MnCl2, 30 C 1 h; mass photometry 25 mM KCl; conditions: protein: recombinant; tags: Mre11-6xHis; Rad50 untagged; chain copies: 2;2; label: 3'-32P on BIO100C; blunt before 3' labeling
T1 sequence (P32829 whole entry, chain 1 of 2): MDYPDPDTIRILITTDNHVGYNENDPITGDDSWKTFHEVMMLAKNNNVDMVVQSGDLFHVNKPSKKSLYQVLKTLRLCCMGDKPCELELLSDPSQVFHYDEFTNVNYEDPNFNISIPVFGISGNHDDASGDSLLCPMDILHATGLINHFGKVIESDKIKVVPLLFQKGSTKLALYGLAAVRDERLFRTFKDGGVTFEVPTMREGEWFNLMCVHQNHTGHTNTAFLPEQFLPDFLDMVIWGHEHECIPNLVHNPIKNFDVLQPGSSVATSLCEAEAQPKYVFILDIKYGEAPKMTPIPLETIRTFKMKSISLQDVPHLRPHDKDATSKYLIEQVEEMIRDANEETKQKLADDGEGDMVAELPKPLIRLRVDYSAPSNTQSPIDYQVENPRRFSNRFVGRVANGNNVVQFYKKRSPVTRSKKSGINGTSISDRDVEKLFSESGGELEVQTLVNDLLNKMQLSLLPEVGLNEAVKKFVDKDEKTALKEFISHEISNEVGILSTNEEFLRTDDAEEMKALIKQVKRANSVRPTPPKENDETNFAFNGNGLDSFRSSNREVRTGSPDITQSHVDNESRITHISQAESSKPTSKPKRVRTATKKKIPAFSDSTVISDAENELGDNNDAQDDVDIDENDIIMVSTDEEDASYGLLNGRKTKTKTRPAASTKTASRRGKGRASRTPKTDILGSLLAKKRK
T1 sequence (P12753 whole entry, chain 2 of 2): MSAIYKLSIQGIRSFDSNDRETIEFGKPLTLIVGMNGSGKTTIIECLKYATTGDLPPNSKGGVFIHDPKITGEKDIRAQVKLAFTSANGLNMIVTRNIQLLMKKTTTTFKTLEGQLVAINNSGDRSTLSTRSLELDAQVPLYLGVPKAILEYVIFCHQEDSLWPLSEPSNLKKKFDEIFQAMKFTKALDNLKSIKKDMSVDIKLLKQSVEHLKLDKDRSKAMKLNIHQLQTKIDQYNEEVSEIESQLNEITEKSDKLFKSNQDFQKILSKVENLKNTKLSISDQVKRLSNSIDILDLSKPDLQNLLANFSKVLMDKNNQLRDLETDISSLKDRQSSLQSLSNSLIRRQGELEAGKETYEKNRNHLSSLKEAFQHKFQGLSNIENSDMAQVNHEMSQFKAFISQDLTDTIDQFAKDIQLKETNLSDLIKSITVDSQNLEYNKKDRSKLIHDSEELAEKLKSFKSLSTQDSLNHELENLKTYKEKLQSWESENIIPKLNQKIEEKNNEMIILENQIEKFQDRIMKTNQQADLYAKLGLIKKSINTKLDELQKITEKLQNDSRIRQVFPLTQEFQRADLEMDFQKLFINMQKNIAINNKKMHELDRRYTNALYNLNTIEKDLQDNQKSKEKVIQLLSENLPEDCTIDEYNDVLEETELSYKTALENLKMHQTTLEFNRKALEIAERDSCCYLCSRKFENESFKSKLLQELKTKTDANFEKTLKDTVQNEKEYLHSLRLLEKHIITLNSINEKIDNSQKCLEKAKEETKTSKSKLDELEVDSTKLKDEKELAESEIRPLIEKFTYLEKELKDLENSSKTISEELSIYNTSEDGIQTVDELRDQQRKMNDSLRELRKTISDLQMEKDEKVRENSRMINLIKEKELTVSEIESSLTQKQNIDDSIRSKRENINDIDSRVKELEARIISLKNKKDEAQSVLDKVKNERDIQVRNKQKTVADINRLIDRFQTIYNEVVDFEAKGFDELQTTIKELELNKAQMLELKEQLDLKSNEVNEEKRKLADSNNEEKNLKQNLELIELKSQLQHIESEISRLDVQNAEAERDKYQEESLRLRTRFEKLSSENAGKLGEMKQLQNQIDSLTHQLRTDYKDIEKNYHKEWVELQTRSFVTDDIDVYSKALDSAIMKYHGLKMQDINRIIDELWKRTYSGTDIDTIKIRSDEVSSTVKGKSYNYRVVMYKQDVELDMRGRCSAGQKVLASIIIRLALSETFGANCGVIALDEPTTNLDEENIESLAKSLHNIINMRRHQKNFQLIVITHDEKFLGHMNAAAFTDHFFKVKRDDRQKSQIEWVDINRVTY

Mre11-Rad50 (MRwt) [2] = target: T1, Mre11-Rad50 (MRwt); assay: EMSA; ATPgS, 5 mM Mg2+, 30 mM NaCl; mean of the 2 visible of 3 replicates (4.948, 4.099); apparent; Oligo EMSA: 25 mM Tris acetate pH 7.5, 1 mM DTT, 0.25 mg/ml BSA, 5 mM Mg acetate, 1 mM ATPgS, 30 mM NaCl, 30 C 15 min, 100 nM bp DNA; plasmid EMSA: 80 mM KCl, plus 1 mM MnCl2, 30 C 1 h; mass photometry 25 mM KCl; conditions: protein: recombinant; tags: Mre11-6xHis; Rad50 untagged; chain copies: 2;2; label: 3'-32P on top strand; 1-nt 5' overhangs as printed

Binder | Kd (Mre11-Rad50 (MRwt) [1]) | Kd (Mre11-Rad50 (MRwt) [2])
B1 | ~6.83 nM | –
B2 | – | ~4.52 nM
